Test results as given in patent US11352401.

Biological target: HLA-A*01 (human)
Assay: UV peptide-exchange ELISA; ++++ = yield >75%
Details: remark: other sources report otherwise

peptide exchange yield: > 75%
Binder: NTDNNLAVY [… (SEQ ID NO: 164)]
